The text below walks through data of patent publication US10000542 (Novo Nordisk, dated 2018).

Positions count from the first letter of the chain named. Numbered stars: 1 amine (or outer) side, 2 acyl side, 3 side chain; on linkers, the order of the positions; unused ones are H or OH. Square brackets hold non-standard residues; d marks the D form. Side chains are listed from the residue outwards. Ends that are not written are not given here. * marks the point of attachment. Dodecanoyl(12-OPh(4-COOH)) = O=C(O)c1ccc(OCCCCCCCCCCCC(=O)*)cc1; Undecanoyl(11-OPh(4-COOH)) = O=C(O)c1ccc(OCCCCCCCCCCC(=O)*)cc1; γGlu = O=C(O)[C@H](CCC(=O)[*:2])N[*:1]; εLys = N[C@@H](CCCCN[*:1])C(=O)[*:2]; AEEA = NCCOCCOCC(=O)O; Aib = CC(C)(N)C(=O)O

The target of experiment [1] is T1, human GLP-1 receptor (human, UniProt P43220 24-463). Kind of experiment: cell-based or functional assay.
Experiment [2] addresses T1, human GLP-1 receptor. Put plainly: SPA displacement of [125I]-GLP-1(7-36)NH2 from BHK membranes with human GLP-1 receptor, high HSA (2.0%). How it is done:
(§1) 50 ul (micro liter) HSA ("high albumin" experiment containing 2% HSA), or buffer ("low albumin" experiment containing 0.001% HSA) was added to Optiplate, and 25 ul of test compounds were added. 5-10 ug membrane protein/sample was added (50 ul) corresponding to 0.1-0.2 mg protein/ml (to be preferably optimised for each membrane preparation). SPA-particles (Wheatgerm agglutinin SPA beads, Perkin Elmer, #RPNQ0001) were added in an amount of 0.5 mg/well (50 ul). […] The plates were sealed with PlateSealer and incubated for 120 minutes at 30° C. while shaking. The plates were centrifuged (1500 rpm, 10 min) and counted in Topcounter.

For experiment [3], the target named is T1, human GLP-1 receptor. Put plainly: SPA displacement of [125I]-GLP-1(7-36)NH2 from BHK membranes with human GLP-1 receptor, low HSA (0.001%). How it is done: as §1
Experiment [4] addresses T1, human GLP-1 receptor. Put plainly: cell-based or functional assay. This is another data set of the same source.
The target of experiment [5] is T1, human GLP-1 receptor. Put plainly: SPA displacement of [125I]-GLP-1(7-36)NH2 from BHK membranes with human GLP-1 receptor, high HSA (2.0%). This is another data set of the same source.
For experiment [6], the target named is T1, human GLP-1 receptor. Put plainly: cell-based or functional assay. The source holds these as a separate data set.
In experiment [7] the target is human serum albumin (HSA) (human, UniProt P02768 25-609). Kind of experiment: cell-based or functional assay.
Chain of human serum albumin (HSA) (P02768 25-609 limits assumed): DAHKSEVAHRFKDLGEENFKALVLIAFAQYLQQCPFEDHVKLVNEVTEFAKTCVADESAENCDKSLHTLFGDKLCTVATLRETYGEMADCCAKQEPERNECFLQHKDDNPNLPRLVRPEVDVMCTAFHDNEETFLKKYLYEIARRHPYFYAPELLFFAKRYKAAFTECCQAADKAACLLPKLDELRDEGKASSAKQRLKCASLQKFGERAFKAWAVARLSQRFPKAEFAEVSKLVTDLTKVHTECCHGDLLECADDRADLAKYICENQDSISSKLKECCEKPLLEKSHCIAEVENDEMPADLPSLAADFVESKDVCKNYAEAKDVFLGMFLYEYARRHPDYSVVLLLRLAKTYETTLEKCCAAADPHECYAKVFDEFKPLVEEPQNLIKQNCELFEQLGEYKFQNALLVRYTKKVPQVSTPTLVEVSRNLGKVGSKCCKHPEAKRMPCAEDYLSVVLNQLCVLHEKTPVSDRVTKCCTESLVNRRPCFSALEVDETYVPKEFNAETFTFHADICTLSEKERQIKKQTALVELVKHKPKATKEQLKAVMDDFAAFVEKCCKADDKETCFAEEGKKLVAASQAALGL

Take H[Aib]EGTFTSDVSSYLEEQAAK([εLys-AEEA-AEEA-γGlu-Undecanoyl(11-OPh(4-COOH))])EFIAWLVRGRK([εLys-AEEA-AEEA-γGlu-Undecanoyl(11-OPh(4-COOH))]): in experiment [1], the “EC50/pM (0% HSA), In vitro potency (CRE luciferase)” value (from here on “EC50/pM (0% HSA), In vitro potency”) came out at 5.5 pM and the “EC50/pM (1% HSA), In vitro potency (CRE luciferase)” value (“EC50/pM (1% HSA), In vitro potency” for short) is 70 pM. The IC50 in experiment [2] amounted to 251 nM. Also, the IC50 in experiment [3] came out at 0.26 nM.

B1: N^ε26-[(2S)-2-amino-6-[[(2S)-2-amino-6-[[(4S)-4-carboxy-4-[10-(4-carboxyphenoxy)decanoylamino]butanoyl]amino]hexanoyl]amino]hexanoyl], … (peptide)
peptide: HXEGTFTSDVSSYLEGQAAKEFIAHLVQGRK
modifications: Aib at 8; Lys 26 and Lys 37 each acylated at the epsilon-amino group with the side chain given in the name (numbering of GLP-1(7-37), His = 7)
On to B1, for which the “EC50/pM (0% HSA), In vitro potency” value in experiment [1] stood at 11 pM. Moreover, in experiment [4], the “In vitro potency (Example 45) (0% HSA) EC50/pM” value is 11 pM and the “In vitro potency (Example 45) (1% HSA) EC50/pM” value came to 162 pM. This molecule also gave an IC50 in experiment [5] of 27 nM. The molecule further showed an IC50 in experiment [3] of 1.57 nM.

B2: N^ε26-[(2S)-2-amino-6-[[(2S)-2-amino-6-[[(4S)-4-carboxy-4-[11-(4-carboxyphenoxy)undecanoylamino]butanoyl]amino]hexanoyl]amino]hexanoyl], … (peptide)
peptide: B1 peptide
modifications: Aib at 8; Lys 26 and Lys 37 each acylated at the epsilon-amino group with the side chain given in the name (numbering of GLP-1(7-37), His = 7)
As to B2, in experiment [1], the “EC50/pM (0% HSA), In vitro potency” value came to 7.2 pM.

B3: N^ε26-[(2S)-2-amino-6-[[(2S)-2-amino-6-[[(4S)-4-carboxy-4-[12-(4-carboxyphenoxy)dodecanoylamino]butanoyl]amino]hexanoyl]amino]hexanoyl], … (peptide)
peptide: B1 peptide with H25W
modifications: Aib at 8; Lys 26 and Lys 37 each acylated at the epsilon-amino group with the side chain given in the name (numbering of GLP-1(7-37), His = 7)
Consider B3, for which the “EC50/pM, In vitro potency (AlphaScreen)” value in experiment [6] is 116 pM. Moreover, in experiment [1], the “EC50/pM (0% HSA), In vitro potency” value turned out to be 8.7 pM and the “EC50/pM (1% HSA), In vitro potency” value stood at 633 pM. Further, the “EC50 (ratio 1% HSA/0% HSA), CRE luciferase” value (“EC50 (ratio 1% HSA/0% HSA)” for short) in experiment [7] came to 72 ratio. In experiment [2], this molecule yielded an IC50 of 321 nM. Further, the half-maximal inhibitory concentration (IC50) in experiment [3] amounted to 0.64 nM.

B4: N^ε26-[(2S)-2-amino-6-[[(2S)-2-amino-6-[[(4S)-4-carboxy-4-(13-carboxytridecanoylamino)butanoyl]amino]hexanoyl]amino]hexanoyl], … (peptide)
peptide: B1 peptide with H25W, Q28H
modifications: Aib at 8; Lys 26 and Lys 37 each acylated at the epsilon-amino group with the side chain given in the name (numbering of GLP-1(7-37), His = 7)
For B4, the “EC50/pM, In vitro potency (AlphaScreen)” value in experiment [6] was 48 pM. In addition, in experiment [1], the “EC50/pM (0% HSA), In vitro potency” value was 7.8 pM and the “EC50/pM (1% HSA), In vitro potency” value worked out at 80 pM. Further, in experiment [7], the “EC50 (ratio 1% HSA/0% HSA)” value is 10.3 ratio. This molecule yielded an IC50 in experiment [2] of 71 nM. Further, the IC50 in experiment [3] amounted to 0.93 nM.

For H[Aib]EGTFTSDVSSYLEEQAAK([εLys-γGlu-γGlu-Undecanoyl(11-OPh(4-COOH))])EFIEWLVRGRK([εLys-γGlu-γGlu-Undecanoyl(11-OPh(4-COOH))]), in experiment [1], the “EC50/pM (0% HSA), In vitro potency” value is 1.5 pM and the “EC50/pM (1% HSA), In vitro potency” value turned out to be 391 pM. In experiment [7], the “EC50 (ratio 1% HSA/0% HSA)” value was 260 ratio. Besides, in experiment [2], the half-maximal inhibitory concentration (IC50) came to 641 nM. Also, the IC50 in experiment [3] came out at 0.03 nM.

With H[Aib]EGTFTSDVSSYLEEQAAK([εLys-AEEA-AEEA-γGlu-Dodecanoyl(12-OPh(4-COOH))])EFIAWLVRGRK([εLys-AEEA-AEEA-γGlu-Dodecanoyl(12-OPh(4-COOH))]), the “EC50/pM, In vitro potency (AlphaScreen)” value in experiment [6] worked out at 369 pM. Further, in experiment [1], the “EC50/pM (0% HSA), In vitro potency” value turned out to be 3.6 pM and the “EC50/pM (1% HSA), In vitro potency” value was 141 pM. In experiment [2], this molecule yielded an IC50 of 484 nM.

B5: N^ε26-[(2S)-6-[[(2S)-6-[[(4S)-4-carboxy-4-[11-(4-carboxyphenoxy)undecanoylamino]butanoyl]amino]-2-(dimethylamino)hexanoyl]amino]-2-(dimethylamino)hexanoyl], … (peptide)
peptide: B1 peptide with H1X, H25W, Q28R
modifications: not fully specified; Imp (imidazopropionyl, des-amino histidine) at 7; Aib at 8; Lys 26 and Lys 37 each acylated at the epsilon-amino group with the side chain given in the name (numbering of GLP-1(7-37))
As to B5, the “EC50/pM (0% HSA), In vitro potency” value in experiment [1] amounted to 7.9 pM.

B6: N^ε26-[(2S)-2-amino-6-[[(2S)-2-[[2-[[(2S)-2-[[(4S)-4-carboxy-4-[12-(4-carboxyphenoxy)dodecanoylamino]butanoyl]amino]-3-hydroxypropanoyl]amino]acetyl]amino]-3-hy … (peptide)
peptide: B1 peptide with H1X, H25W, Q28R
modifications: Imp (imidazopropionyl, des-amino histidine) at 7; Aib at 8; Lys 26 and Lys 37 each acylated at the epsilon-amino group with the side chain given in the name (numbering of GLP-1(7-37))
Turning to B6, the “EC50/pM (0% HSA), In vitro potency” value in experiment [1] was 9.4 pM.

B7: Comparative compound (WO2011/080103) Example 4 (peptide)
peptide: B1 peptide with H25W, Q28R
modifications: Aib at 8; 26K and 37K acylated: protracting moiety C14 diacid, linker gGlu-2xOEG (numbering of GLP-1(7-37), His = 7)
notes: X stands for Aib
Regarding B7, in experiment [4], the “In vitro potency (Example 44) EC50/pM” value was 366 pM, the “In vitro potency (Example 45) (0% HSA) EC50/pM” value amounted to 46 pM and the “In vitro potency (Example 45) (1% HSA) EC50/pM” value amounted to 92 pM. In experiment [5], this molecule yielded an IC50 of 357 nM. In experiment [3], the IC50 worked out at 6.02 nM.

Turning to H[Aib]EGTFTSDVSSYLEEQAAK([εLys-γGlu-γGlu-Undecanoyl(11-OPh(4-COOH))])EFIEWLVRGRK([εLys-γGlu-γGlu-Undecanoyl(11-OPh(4-COOH))])E (X stands for Aib), the IC50 came to 123 nM in experiment [2] and 0.02 nM in experiment [3].
